Assay results: publication PMC4928127, “Determination of GLUT1 Oligomerization Parameters using Bioluminescent Förster Resonance Energy Transfer” (Scientific Reports, 2016)

Biological target: T1, Nluc-GLUT1 (mouse, UniProt P17809 1-492)
T1 construct: facilitated glucose transporter GLUT1 (SLC2A1), mouse Glut1 open reading frame; BRET donor; also called GLUT1 fused to Nluc at the N-terminus; not shown: Nanoluciferase (Nluc), N-terminal, kept
T1 sequence (looked up): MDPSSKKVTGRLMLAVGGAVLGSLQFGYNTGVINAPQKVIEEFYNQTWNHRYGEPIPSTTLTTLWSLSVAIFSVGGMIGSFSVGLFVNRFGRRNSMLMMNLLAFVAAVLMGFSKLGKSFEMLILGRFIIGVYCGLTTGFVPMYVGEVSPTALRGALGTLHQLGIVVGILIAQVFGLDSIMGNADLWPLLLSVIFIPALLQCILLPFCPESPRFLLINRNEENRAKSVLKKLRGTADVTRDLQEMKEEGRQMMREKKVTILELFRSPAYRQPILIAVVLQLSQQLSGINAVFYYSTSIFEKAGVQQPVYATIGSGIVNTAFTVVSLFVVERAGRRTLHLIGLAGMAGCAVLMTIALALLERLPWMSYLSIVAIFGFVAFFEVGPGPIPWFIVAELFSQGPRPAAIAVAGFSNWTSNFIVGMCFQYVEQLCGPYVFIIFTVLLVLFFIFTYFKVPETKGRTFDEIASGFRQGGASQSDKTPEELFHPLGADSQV
Assay: FRET or BRET; stable polyclonal 293FT/dox^GB1 cells: constitutive Nluc-GLUT1, mCherry-GLUT1 induced 48 hours with a 2-fold serial dilution of doxycycline; corrected BRET against doxycycline and against mCherry-GLUT1 level relative to endogenous GLUT1 by immunoblot
Conditions: partners not purified

B1: mCherry-GLUT1 (natural protein, mouse, UniProt P17809 1-492, looked up)
chain: T1 sequence (looked up)
notes: facilitated glucose transporter GLUT1 (SLC2A1), mouse Glut1 open reading frame; BRET acceptor; also called GLUT1 fused to mCherry at the N-terminus; not shown: mCherry, N-terminal, kept
- doxycycline concentration at which ~50% of mCherry-GLUT1 is in multimeric complexes (doxycycline EC50 of BRET): 4.69 ng/mL
